Columns and labels:
C=CC(N)=O [1] = test system: T1, C=CC(N)=O; assay: purified protein; assay type: biochemical, Bacillus sp. (in: firmicutes); settings: 20 mM potassium phosphate pH 7.2, 150 mM NaCl, 2 mM DTT, 37 °C, 15 nM enzyme, 20 min
T1 construct: C-terminal 6xHis tag, expressed in E. coli BL21(DE3), His-GraviTrap purified; catalytic triad E59, K134, C166

C=CC(N)=O [2] = assay: purified protein; settings: 20 mM potassium phosphate pH 7.2, 150 mM NaCl, 2 mM DTT, 37 °C, 15 nM enzyme, 20 min

| Substance | Km (C=CC(N)=O [1]) | Vmax (C=CC(N)=O [1]) | kcat (C=CC(N)=O [1]) | kcat/Km (C=CC(N)=O [1]) | Km (C=CC(N)=O [2]) | Vmax (C=CC(N)=O [2]) | kcat (C=CC(N)=O [2]) | kcat/Km (C=CC(N)=O [2]) |
| --- | --- | --- | --- | --- | --- | --- | --- | --- |
| RAPc8 amidase (Bacillus sp. (in: firmicutes)) | 7.3 ± 0.1 mM | 106 µM/min | 118 ± 6.75 s⁻¹ | 16300 ± 1060 M⁻¹ s⁻¹ |  |  |  |  |
| RAPc8 amidase (Bacillus sp. (in: firmicutes); A77T) |  |  |  |  | 4.5 ± 0.2 mM | 66.7 µM/min | 74.1 ± 2.32 s⁻¹ | 16600 ± 357 M⁻¹ s⁻¹ |
| RAPc8 amidase (Bacillus sp. (in: firmicutes); A77T/D294N/K342E/M203V/M45L) |  |  |  |  | 7.4 ± 1.3 mM | 176 µM/min | 196 ± 17.9 s⁻¹ | 26800 ± 2390 M⁻¹ s⁻¹ |
| RAPc8 amidase (Bacillus sp. (in: firmicutes); A77T/M203V) |  |  |  |  | 4.6 ± 0.4 mM | 64.7 µM/min | 71.9 ± 5.14 s⁻¹ | 15600 ± 598 M⁻¹ s⁻¹ |
| RAPc8 amidase (Bacillus sp. (in: firmicutes); M203V) |  |  |  |  | 7.2 ± 1.1 mM | 147 µM/min | 163 ± 18.6 s⁻¹ | 22900 ± 1170 M⁻¹ s⁻¹ |
